The source of these data is patent publication US20060052582A1 (published 2006).

For experiment [1], the target named is HA wild type Ran (UniProt P62826 1-216). Nature of the experiment: co-expression and co-immunoprecipitation. The text has this:
To address more directly the relative binding in vivo of Nercc to Ran-GDP compared to Ran-GTP, the cytoplasmic wild type Nercc and a nuclear form of full length Nercc (NLS-Nercc) were each co-expressed with wild type Ran or Ran mutants that bind GDP (T24N) or GTP (G19V) exclusively; either Ran or Nercc was immunoprecipitated and probed for the association with the other polypeptide. The full-length wild type Nercc bound co-expressed wild type Ran and Ran T24N to a greater extent than RanG19V.

Experiment [2] addresses T1, FLAG Nercc (full-length wild type Nercc1 kinase with FLAG epitope tag) (human, UniProt Q8TD19 1-979).
T1 construct: Expressed in HEK293 cells; also called FLAG Nercc1; FLAG Nercc full length (FL)
T1 sequence: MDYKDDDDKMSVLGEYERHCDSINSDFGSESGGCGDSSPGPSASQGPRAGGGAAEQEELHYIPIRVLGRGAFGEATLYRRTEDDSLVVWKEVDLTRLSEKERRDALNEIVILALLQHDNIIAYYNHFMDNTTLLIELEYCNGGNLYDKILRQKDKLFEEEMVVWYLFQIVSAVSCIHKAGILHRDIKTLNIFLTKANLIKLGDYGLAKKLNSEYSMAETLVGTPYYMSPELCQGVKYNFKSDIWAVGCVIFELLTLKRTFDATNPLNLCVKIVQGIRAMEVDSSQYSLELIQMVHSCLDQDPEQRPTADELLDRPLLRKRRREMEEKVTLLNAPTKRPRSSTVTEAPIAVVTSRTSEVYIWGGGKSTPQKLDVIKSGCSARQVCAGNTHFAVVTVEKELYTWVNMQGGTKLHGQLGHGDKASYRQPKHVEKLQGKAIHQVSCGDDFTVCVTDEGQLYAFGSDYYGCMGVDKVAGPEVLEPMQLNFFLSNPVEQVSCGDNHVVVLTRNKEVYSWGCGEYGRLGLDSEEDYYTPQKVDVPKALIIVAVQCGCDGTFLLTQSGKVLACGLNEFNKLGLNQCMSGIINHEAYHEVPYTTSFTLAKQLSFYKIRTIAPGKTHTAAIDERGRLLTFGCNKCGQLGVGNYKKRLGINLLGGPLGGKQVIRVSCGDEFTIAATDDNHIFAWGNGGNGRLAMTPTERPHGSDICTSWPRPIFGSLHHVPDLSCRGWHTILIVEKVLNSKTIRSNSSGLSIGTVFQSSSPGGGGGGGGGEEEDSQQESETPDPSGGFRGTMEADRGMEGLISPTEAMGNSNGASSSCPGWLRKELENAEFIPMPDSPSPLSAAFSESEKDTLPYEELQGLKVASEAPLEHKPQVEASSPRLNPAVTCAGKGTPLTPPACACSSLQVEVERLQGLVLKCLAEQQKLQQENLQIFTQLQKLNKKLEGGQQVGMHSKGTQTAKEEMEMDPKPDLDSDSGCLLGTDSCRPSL
Nature of the experiment: binding test of co-expressed proteins; details not given.

For experiment [3], the target named is T2, FLAG Nercc (1-891) (human, UniProt Q8TD19 1-891).
T2 sequence: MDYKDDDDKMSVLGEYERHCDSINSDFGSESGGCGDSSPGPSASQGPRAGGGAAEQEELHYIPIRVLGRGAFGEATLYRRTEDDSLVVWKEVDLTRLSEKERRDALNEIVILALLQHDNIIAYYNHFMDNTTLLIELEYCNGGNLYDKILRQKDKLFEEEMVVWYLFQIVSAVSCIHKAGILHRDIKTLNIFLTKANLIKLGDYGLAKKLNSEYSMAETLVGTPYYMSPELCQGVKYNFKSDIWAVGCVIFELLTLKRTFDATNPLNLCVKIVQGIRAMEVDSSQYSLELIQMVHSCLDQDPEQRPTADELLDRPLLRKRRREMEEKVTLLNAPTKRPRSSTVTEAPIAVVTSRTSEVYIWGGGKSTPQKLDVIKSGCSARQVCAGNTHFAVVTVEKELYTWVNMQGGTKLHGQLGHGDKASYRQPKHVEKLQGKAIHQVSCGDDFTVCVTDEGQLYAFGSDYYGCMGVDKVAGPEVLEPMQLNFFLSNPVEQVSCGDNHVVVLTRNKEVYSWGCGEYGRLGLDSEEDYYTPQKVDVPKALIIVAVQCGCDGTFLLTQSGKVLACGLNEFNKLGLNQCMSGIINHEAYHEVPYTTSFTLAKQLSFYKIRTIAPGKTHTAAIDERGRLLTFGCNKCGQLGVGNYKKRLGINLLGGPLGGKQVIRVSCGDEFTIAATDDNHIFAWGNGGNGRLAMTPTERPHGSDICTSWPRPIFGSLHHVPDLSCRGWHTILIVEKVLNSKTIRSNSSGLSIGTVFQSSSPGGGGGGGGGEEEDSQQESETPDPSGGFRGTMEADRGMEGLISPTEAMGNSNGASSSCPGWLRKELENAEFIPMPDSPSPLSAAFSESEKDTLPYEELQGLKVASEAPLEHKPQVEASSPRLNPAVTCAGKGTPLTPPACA
The experiment is described as above.

For experiment [4], the target named is T3, endogenous Nercc1 kinase of human cells (p120) (human, UniProt Q8TD19 2-979).
T3 construct: Endogenous 120 kDa protein
T3 sequence: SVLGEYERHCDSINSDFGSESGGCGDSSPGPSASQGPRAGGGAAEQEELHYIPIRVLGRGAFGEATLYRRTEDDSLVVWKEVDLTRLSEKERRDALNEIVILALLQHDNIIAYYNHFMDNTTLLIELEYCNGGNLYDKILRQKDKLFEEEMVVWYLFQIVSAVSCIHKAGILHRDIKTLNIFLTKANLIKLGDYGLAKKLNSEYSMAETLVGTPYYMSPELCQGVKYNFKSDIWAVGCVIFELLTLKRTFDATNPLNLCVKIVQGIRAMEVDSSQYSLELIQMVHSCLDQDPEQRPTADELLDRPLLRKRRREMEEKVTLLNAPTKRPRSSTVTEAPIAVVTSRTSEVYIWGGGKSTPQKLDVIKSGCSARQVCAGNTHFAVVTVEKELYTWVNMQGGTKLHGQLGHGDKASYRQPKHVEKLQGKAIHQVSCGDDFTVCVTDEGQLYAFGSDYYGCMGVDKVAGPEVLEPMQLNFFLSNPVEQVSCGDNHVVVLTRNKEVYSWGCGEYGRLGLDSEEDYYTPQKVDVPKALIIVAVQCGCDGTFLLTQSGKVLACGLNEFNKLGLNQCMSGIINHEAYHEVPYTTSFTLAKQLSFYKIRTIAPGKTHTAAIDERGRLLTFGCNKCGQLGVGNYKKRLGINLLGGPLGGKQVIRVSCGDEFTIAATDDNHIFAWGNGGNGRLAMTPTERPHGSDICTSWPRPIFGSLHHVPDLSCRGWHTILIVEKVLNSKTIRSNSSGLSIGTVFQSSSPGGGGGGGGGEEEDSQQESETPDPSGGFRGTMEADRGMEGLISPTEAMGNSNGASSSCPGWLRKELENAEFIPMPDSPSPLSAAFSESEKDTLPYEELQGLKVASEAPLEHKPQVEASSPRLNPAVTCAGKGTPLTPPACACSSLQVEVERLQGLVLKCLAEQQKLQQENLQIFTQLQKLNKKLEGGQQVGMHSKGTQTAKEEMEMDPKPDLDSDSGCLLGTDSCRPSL
Nature of the experiment: anti-FLAG immunoaffinity purification from HEK293 cells; associated band identified by mass spectrometry. The text has this:
Immunoaffinity purification of a FLAG Nek6 polypeptide overexpressed in HEK293 cells results in the recovery of an associated 120 kilodalton (kDa) polypeptide (p120). […] The 120 kDa band was excised, subjected to tryptic digestion in situ, microcapillary reverse-phase HPLC and peptide sequence analysis by electrospray ionization mass spectrometry. Spectra corresponding to multiple peptide sequences were identified on each of three successive open reading frames (ORFs) predicted by […] (Burge et al., J. Mol. Biol., 268: 78-94 (1997)) on the human BAC clone 201F1 (AC007055). […] Further analysis of the genomic sequences including and surrounding all three ORFs, using both […] (Borodovsky et al., Computers and Chem., 17: 123-133 (1993)) or […] yielded predictions containing all three original ORFs (AAD31938, AAD31939 and AAD31940) in polypeptides of around 100 kDa (107 kDa and 91 kDa, respectively).

B1: Nek6 (tag of the construct not stated) (enzyme)
chain: not shown
As for B1, the binding result is listed as “no binding” in experiment [1], “binds” in experiment [2] and “binds” in experiment [3].

B2: FLAG Nek6 (enzyme)
chain: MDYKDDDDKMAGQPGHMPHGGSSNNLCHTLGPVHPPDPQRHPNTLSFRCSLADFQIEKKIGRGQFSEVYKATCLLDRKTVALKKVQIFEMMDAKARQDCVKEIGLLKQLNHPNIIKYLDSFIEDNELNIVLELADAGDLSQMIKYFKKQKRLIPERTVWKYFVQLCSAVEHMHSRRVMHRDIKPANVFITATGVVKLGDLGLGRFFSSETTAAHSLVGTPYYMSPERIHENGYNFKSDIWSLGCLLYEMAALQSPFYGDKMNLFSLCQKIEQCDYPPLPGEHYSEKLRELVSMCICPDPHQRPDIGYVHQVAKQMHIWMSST
notes: Expressed in HEK293 cells; runs as a doublet (phosphorylated and unphosphorylated); also called wild type FLAG Nek6
Take B2: in experiment [4], the binding result is reported as “binds”.
